Where two headings read alike, the source gives them in different places.
How the values were obtained:
rat ASGR1 on CHO-S cells [1] = target: T1, rat ASGR1 on CHO-S cells (rat, UniProt P02706 1-284); assay: Guava flow cytometry on CHO-S cells expressing rat ASGR1
T1 construct: whole, on cells
T1 sequence (looked up): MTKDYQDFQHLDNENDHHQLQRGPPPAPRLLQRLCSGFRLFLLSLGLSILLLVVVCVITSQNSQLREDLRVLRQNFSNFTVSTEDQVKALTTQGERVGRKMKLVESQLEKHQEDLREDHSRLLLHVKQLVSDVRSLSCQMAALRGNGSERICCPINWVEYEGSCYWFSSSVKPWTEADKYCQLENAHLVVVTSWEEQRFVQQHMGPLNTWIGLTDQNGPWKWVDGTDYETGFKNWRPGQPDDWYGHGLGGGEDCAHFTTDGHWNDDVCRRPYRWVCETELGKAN
Procedure: (§1) Anti-human ASGR1 antibodies of this disclosure were examined for cross-reactivity with Cynomolgus macaque and rat ASGR1. Briefly, sequence encoding Cynomolgus macaque or rat ASGR1 was transiently transfected into CHO-S cells. Transfected cells were before performing cell binding assay. A total of about 1.5×10⁴ transfected cells/well were added to 96-well V-bottom assay plate, incubated at 37° C., 5% CO2 for 48-72 hours, and then washed with culture medium before adding 100 μl of each ASGR1 antibody at different concentrations starting from 100 nM and 3-fold dilutions to a total of eight wells. The cells with antibody were incubated for 40 minutes at 4° C., then washed three times with 200 μl of fresh culture medium. To each well was added 50 μl PE conjugated goat anti-human Fc (SouthemBiotech) at 1:200 dilution in culture medium and then incubated at 4° C. for 20 minutes. After washing the plate once, the treated cells were resuspended in 200 μl culture medium and then the stained cells were analyzed on GUAVA® using Incyte software.

[2] = target: T2, Cynomolgus macaque ASGR1 on CHO-S cells (Cynomolgus macaque); assay: Guava flow cytometry on CHO-S cells expressing cynomolgus ASGR1
T2 construct: whole, on cells; also called Cynomologous ASGR1
Procedure: as §1

rat ASGR1 on CHO-S cells [3] = target: T1, rat ASGR1 on CHO-S cells; assay: Guava flow cytometry on CHO-S cells expressing rat ASGR1 (repeat of Table 16)
Procedure: as §1, with “Briefly,” for “Anti-human ASGR1 antibodies of this disclosure were examined for cross-reactivity with Cynomolgus macaque and rat ASGR1. Briefly,”, “(SouthernBiotech)” for “(SouthemBiotech)”
as §1

[4] = target: T3, human ASGR1 (asialoglycoprotein receptor 1) on cells (human, UniProt P07306 1-291); assay: flow cytometry on HepG2 cells, anti-human IgG PE secondary, MFI (Geo Mean)
T3 construct: whole, on cells; also called HepG2 cells; CHO-S cells transfected with human ASGR1 full length DNA
T3 sequence (looked up): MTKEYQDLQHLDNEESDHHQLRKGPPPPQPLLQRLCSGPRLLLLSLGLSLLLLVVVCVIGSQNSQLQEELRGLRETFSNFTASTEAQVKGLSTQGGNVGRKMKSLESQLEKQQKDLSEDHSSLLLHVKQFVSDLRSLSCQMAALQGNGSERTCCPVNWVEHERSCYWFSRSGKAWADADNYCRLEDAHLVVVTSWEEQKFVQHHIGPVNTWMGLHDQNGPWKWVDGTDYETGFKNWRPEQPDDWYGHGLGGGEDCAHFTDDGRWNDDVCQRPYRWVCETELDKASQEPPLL
Procedure: Briefly, 5×10⁴ HepG2 cells/well were contacted with titrating concentrations of anti-ASGR1 antibodies in FACS Buffer (FB: PBS+2% FBS+1 mM CaCl₂)) for 30 minutes at 4° C. Cells were washed twice in FB, then incubated in anti-human IgG PE secondary for 30 minutes at 4° C. Cells were washed twice in FB, then analyzed by flow cytometry.

[5] = target: T2, Cynomolgus macaque ASGR1 on CHO-S cells; assay: Guava flow cytometry on CHO-S cells expressing cynomolgus ASGR1 (repeat of Table 15)
Procedure: as §1

[6] = target: T3, human ASGR1 (asialoglycoprotein …); assay: competition flow cytometry on CHO-S cells with human ASGR1; 200 nM F(ab')2 against 33 nM GalNac-hFc
[7] = target: T3, human ASGR1 (asialoglycoprotein …); assay: Guava flow cytometry screen on HepG2 cells
[8] = target: T3, human ASGR1 (asialoglycoprotein …); assay: Guava flow cytometry screen on HepG2 cells; remark: listed apart in the source

B1: K2E (antibody, V domains shown)
VH: QVQLQQSAAELARPGASVKMSCKASGYTFTSYTMHWVKQRPGQGLEWIGYISPSSGYTEYNQKFKDKTTLTADKSSSTAYMQLSSLTSEDSAVYYCARKFDYWGQGTTLTVSS
VL: DIKMTQSPSSMYASLGERVTITCKASQDINSYLSWFQQKPGKSPKTLIYRANRLVDGVPSRFSGSGSGQDFSLTISSLEYEDMGIYYCLQYDEFPFTFGSGTKLEIK
notes: parental mouse hybridoma antibody; also called mAb K2E
Rat ASGR1 on CHO-S cells [1]
  EC50: 0.52 nM
[2]
  EC50: 0.68 nM
Rat ASGR1 on CHO-S cells [3]
  EC50: 0.52 nM
[4]
  EC50 (read off the curve): ~0.3 µg/mL
[5]
  EC50: 0.68 nM

B2: F(ab')2 fragment of K2E (F(ab')2)
VH: QVQLQQSAAELARPGASVKMSCKASGYTFTSYTMHWVKQRPGQGLEWIGYISPSSGYTEYNQKFKDKTTLTADKSSSTAYMQLSSLTSEDSAVYYCARKFDYWGQGTTLTVSS
VL: DIKMTQSPSSMYASLGERVTITCKASQDINSYLSWFQQKPGKSPKTLIYRANRLVDGVPSRFSGSGSGQDFSLTISSLEYEDMGIYYCLQYDEFPFTFGSGTKLEIK
[6]
  % Blocking GalNac Binding: 10%

B3: F(ab')2 fragment of G2D (F(ab')2)
VH: EVQLQQSGPELVKPGASVKISCKASGYSFTGYYMHWVKQSHVKSLEWIGRINPNNGATNYNQNFKDKASLTVDKSSSTAYMEFHSLTSEDSAVYYCTSVNFYYWGQGTTLTVSS
VL: DIKMTQSPSSMYASLGERVTITCKASQVINSYLSWFQQKPGKSPETLIYRANTLVDGVPSRFSGSGSGQDYSLTISSLEYEDLGIYYCLQYAEFPYTFGGGTKLEIK
[6]
  % Blocking GalNac Binding: -0.3%

B4: ASGR1 mAb-C (antibody, V domains shown)
VH: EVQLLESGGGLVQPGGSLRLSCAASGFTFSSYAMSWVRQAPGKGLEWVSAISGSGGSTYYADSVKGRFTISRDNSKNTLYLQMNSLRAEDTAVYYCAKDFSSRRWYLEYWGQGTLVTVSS
VL: SSELTQDPAVSVALGQTVRITCQGDSLRSYYASWYQQKPGQAPVLVIYGKNNRPSGIPDRFSGSSSGNTASLTITGAQAEDEADYYCNSLERIGYLSYVFGGGTKLTVL
notes: control with CDRs of anti-ASGR1 antibody 4F3; mouse IgG2a or human IgG1 isotype by assay; also called 4F3
[2]
  EC50: 2.35 nM
[4]
  EC50 (read off the curve): ~0.3 µg/mL
[5]
  EC50: 2.35 nM

B5: F(ab')2 fragment of ASGR1 mAb-C (F(ab')2)
VH: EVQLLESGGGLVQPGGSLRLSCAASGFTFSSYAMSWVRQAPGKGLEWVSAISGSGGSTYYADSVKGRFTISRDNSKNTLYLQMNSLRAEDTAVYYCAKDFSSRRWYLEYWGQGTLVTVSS
VL: SSELTQDPAVSVALGQTVRITCQGDSLRSYYASWYQQKPGQAPVLVIYGKNNRPSGIPDRFSGSSSGNTASLTITGAQAEDEADYYCNSLERIGYLSYVFGGGTKLTVL
modifications: F(ab')2 fragment: two Fab arms joined at the hinge, with the Fc removed.
[6]
  % Blocking GalNac Binding: -5.4%

B6: hzG2D-17 (antibody, human IgG1, kappa, V domains shown)
VH: QVQLVQSGAEVKKPGASVKVSCKASGYTFTGYYMHWVRQAPGQRLEWMGRINPNNGATNYNQNFKDKASLTVDTSASTAYMELSSLRSEDTAVYYCARVNFYYWGQGTTLTVSS
VL: DIKMTQSPSSMYASLGERVTITCKASQVINSYLSWFQQKPGKSPETLIYRANTLVDGVPSRFSGSGSGQDYSLTISSLEYEDLGIYYCLQYAEFPYTFGGGTKLEIKR
notes: humanized VH with the mouse G2D VL
[7]
  binding result: binds

B7: F(ab')2 fragment of hzH8K-1 (F(ab')2)
VH: QVQLQESGPGLVKPSQTLSLTCTVSGGSISSDYAWNWIRQHPGKGLEWIGYRSYRGSTSYNPSLKSRVTISVDTSKNQFSLKLSSVTAADTAVYYCARRGYYGSSSHWYFDVWGQGTTVTVSS
VL: DIQMTQSPSSLSASVGDRVTITCRASENIYSYLAWYQQKPGKAPKLLIYNAKTLAEGVPSRFSGSGSGTDFTLTISSLQPEDFATYYCQHHYGTPLTFGGGTKVEIK
[6]
  % Blocking GalNac Binding: 81.3%

B8: hzL4L-5 (antibody, IgG1, V domains shown)
VH: QVQLQESGPGLVKPSQTLSLTCTVSGYSISSDYAWNWIRQHPGKGLEWIGYISYSGSTRYNPSLKSRISITRDTSKNQFSLKLSSVTAADTAVYYCARRYRYDEGYGMDYWGQGTTVTVSS
VL: DIQMTQSPSSLSASVGDRVTITCRASENIYSNLAWYQQKPGKAPKLLIYAATNLADGVPSRFSGSGSGTDFTLTISSLQPEDFATYYCQHFWGTPPWTFGGGTKVEIK
notes: IgG1, kappa
[8]
  binding result: binds

B9: hzL4L-2 (antibody, IgG1, V domains shown)
VH: QVQLQESGPGLVKPSQTLSLTCTVSGGSITSDYAWNWIRQHPGKGLEWIGYISYSGSTRYNPSLKSRISITRDTSKNQFSLKLSSVTAADTAVYYCARRYRYDEGYGMDYWGQGTTVTVSS
VL: DIQMTQSPSSLSASVGDRVTITCRASENIYSNLAWYQQKPGKAPKLLIYAATNLADGVPSRFSGSGSGTDFTLTISSLQPEDFATYYCQHFWGTPPWTFGGGTKVEIK
notes: IgG1, kappa
[8]
  binding result: binds

B10: hzL4L-10 (antibody, IgG1, V domains shown)
VH: QVQLQESGPGLVKPSQTLSLTCTVSGYSITSDYAWNWIRQHPGKGLEWIGYISYSGSTRYNPSLKSRISITRDTSKNQFSLKLSSVTAADTAVYYCARRYRYDEGYGMDYWGQGTTVTVSS
VL: DIQMTQSPSSLSASVGDRVTITCRASENIYSNLAWYQQKPGKAPKLLIYAATNLASGVPSRFSGSGSGTDFTLTISSLQPEDFATYYCQHFWGTPPWTFGGGTKVEIK
notes: IgG1, kappa
[8]
  binding result: binds

B11: F(ab')2 fragment of hzL4L-14 (F(ab')2)
VH: QVQLQESGPGLVKPSQTLSLTCTVSGYSISSDYAWNWIRQHPGKGLEWIGYISYSGSTRYNPSLKSRVTITRDTSKNQFSLKLSSVTAADTAVYYCARRYRYDEGYGMDYWGQGTTVTVSS
VL: DIQMTQSPSSLSASVGDRVTITCRASENIYSNLAWYQQKPGKAPKLLIYAATNLAEGVPSRFSGSGSGTDFTLTISSLQPEDFATYYCQHFWGTPPWTFGGGTKVEIK
[6]
  % Blocking GalNac Binding: 90.7%

B12: hzL4L-6 (antibody, IgG1, V domains shown)
VH: QVQLQESGPGLVKPSQTLSLTCTVSGYSITSDYAWNWIRQHPGKGLEWIGYISYSGSTRYNPSLKSRVTITRDTSKNQFSLKLSSVTAADTAVYYCARRYRYDEGYGMDYWGQGTTVTVSS
VL: DIQMTQSPSSLSASVGDRVTITCRASENIYSNLAWYQQKPGKAPKLLIYAATNLADGVPSRFSGSGSGTDFTLTISSLQPEDFATYYCQHFWGTPPWTFGGGTKVEIK
notes: IgG1, kappa
[8]
  binding result: binds

B13: F(ab')2 fragment of J4F (F(ab')2)
VH: QVQLQQSGDDLVKPGASVKLSCKASGYTFTSYWINWIKQRPGQGLEWIGRIVPGSGSTYYNEMFKDKATLTVDTSSSTAYIQLSSLSSEDSAVYFCARKPNFDVWGAGTTVTVSS
VL: DIVMTQSQKFMSTSVGDRVSVTCKASQNVGTNVAWYQQKPGQSPKAVIYSASYRFSGVPDRLTGSGSGTDFTLTITNVQSEDLAEYFCQQYNSYPLTFGAGTKLELK
[6]
  % Blocking GalNac Binding: -32.1%

B14: hzG2D-11 (antibody, human IgG1, kappa)
heavy: not shown
light: DIQMTQSPSSLSASVGDRVTITCKASQVINSYLSWFQQKPGKAPKSLIYRANTLVDGVPSRFSGSGSGTDFTLTISSLQPEDFATYYCLQYAEFPYTFGGGTKVEIKRTVAAPSVFIFPPSDEQLKSGTASVVCLLNNFYPREAKVQWKVDNALQSGNSQESVTEQDSKDSTYSLSSTLTLSKADYEKHKVYACEVTHQGLSSPVTKSFNRGEC
[7]
  binding result: binds

B15: hzG2D-20 (antibody, human IgG1, kappa)
heavy: not shown
light: DIQMTQSPSSLSASVGDRVTITCKASQVINSYLSWFQQKPGKAPKSLIYRANTLVDGVPSRFSGSGSGTDFTLTISSLQPEDFATYYCLQYAEFPYTFGGGTKVEIKRTVAAPSVFIFPPSDEQLKSGTASVVCLLNNFYPREAKVQWKVDNALQSGNSQESVTEQDSKDSTYSLSSTLTLSKADYEKHKVYACEVTHQGLSSPVTKSFNRGEC
[7]
  binding result: binds

— patent US20210130473A1 (SILVERBACK THERAPEUTICS, published 2021)
